According to patent US6495144 (Johns Hopkins, dated 2002):
Changes are numbered by the printed parent chain.

B1: wild-type EBNA2 peptide comprised of amino acids 252-425 (type A) (other)
chain: LHVPDQSMHPLTHQSTPNDPDSPEPRSPTVFYNIPPMPLPPSQLPPPAAPAQPPPGVINDQQLHHLPSGPPWWPPICDPPQPSKTQGQSRGQSRGRGRGRGRGRGKGKSRDKQRKPGGPWRPEPNTSSPSMPELSPVLGLHQGQGAGDSPTPGPSNAAPVCRNSHTATPNVSPI
notes: range 252-425; In vitro transcribed and translated, labeled with 35S-methionine; also called aa252-425 (wild-type); E2 252-425
B2: EBNA2 252-425 GP320SR (CR6) (other)
chain: B1 chain with G69S, P70R
notes: range 252-425; In vitro transcribed and translated
B3: EBNA2 252-425 LGL389SRT (CR7) (other)
chain: B1 chain with L138S, G139R, L140T
notes: range 252-425; In vitro transcribed and translated; also called CR7 mutation
B4: EBNA2 252-425 PI326SR (CR6) (other)
chain: B1 chain with P75S, I76R
notes: as for B2
B5: EBNA2 252-425 SR360VD (PKC) (other)
chain: B1 chain with S109V, R110D
notes: range 252-425; In vitro transcribed and translated; also called PKC mutation
B6: EBNA2 252-425 WW323SR (CR6) (other)
chain: B1 chain with W72S, W73R
notes: as for B2
B7: type B EBNA2 comprising amino acids 216-392 (other)
chain: GHQLSLPPHPPPHQSTPHCSSDSTGLPPPPTSYSIPSMTLSPEPLPPPAAPAHPLPGVIYDQQALPPTPGPPWWPPVRDPTPTTQTPPTNTKQGPDQGQGRGRWRGRGRSKGRGRMHKLPEPRRPGPDTSSPSMPQLSPVVSLHQGQGPENSPTPGPSTAGPVCRVTPSATPDISPI
notes: range 216-392; Prepared by in vitro transcription and translation; gene provided by Dr. Elliott Kieff; also called type B peptide

What was measured:
CBF1/RBPJk [1] = target: T1, CBF1/RBPJk (UniProt Q06330 1-500); assay: EMSA supershift with heparin-agarose purified CBF1 and Cp CBF1 site probe; phosphoimager, relative to wild-type EBNA2(252-425)
T1 construct: also called CBF1 tethering protein
T1 sequence (Q06330 whole entry): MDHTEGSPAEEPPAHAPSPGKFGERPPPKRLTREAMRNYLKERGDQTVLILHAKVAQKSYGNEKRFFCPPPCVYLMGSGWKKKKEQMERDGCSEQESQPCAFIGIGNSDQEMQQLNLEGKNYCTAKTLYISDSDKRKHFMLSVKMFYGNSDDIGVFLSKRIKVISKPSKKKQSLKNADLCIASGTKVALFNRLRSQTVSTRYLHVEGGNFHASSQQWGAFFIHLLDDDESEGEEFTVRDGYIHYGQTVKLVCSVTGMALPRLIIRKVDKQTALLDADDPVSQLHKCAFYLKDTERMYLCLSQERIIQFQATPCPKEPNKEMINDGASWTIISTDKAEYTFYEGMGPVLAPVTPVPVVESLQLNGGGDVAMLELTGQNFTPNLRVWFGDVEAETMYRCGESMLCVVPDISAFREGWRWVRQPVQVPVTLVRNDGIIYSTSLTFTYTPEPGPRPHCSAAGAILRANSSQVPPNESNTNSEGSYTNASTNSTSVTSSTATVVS

CBF1/RBPJk [2] = target: T1, CBF1/RBPJk; assay: EMSA, against wild-type EBNA2 252-425
CBF1/RBPJk [3] = target: T1, CBF1/RBPJk; assay: EMSA with two-fold increases in peptide amount, against type A EBNA2 252-425

Binder | % Complex formation (CBF1/RBPJk [1]) | fold reduction in the amounts of EBNA2/CBF1 complex formed (CBF1/RBPJk [2]) | fold more peptide required than type A EBNA2 for conversion of all the CBF1 to the supershifted complex (CBF1/RBPJk [3])
B1 | 100% |  | 
B2 | 90% |  | 
B3 | 50% | ~2 fold | 
B4 | 5% |  | 
B5 | 60% | ~2 fold | 
B6 | < 1% |  | 
B7 |  |  | 2 fold
